According to patent US20200277374A1 (Alector, published 2020):

Columns and labels:
M30A = biological target: T1, M30A (human, UniProt Q9Y286); experiment: flow cytometry on HEK-293T cells expressing the mutant; mean % of wild-type signal (range of duplicates)
T1 construct: clone of the siglec-7 mutation library; also called Siglec-7 M30A
Protocol: (§1) Shotgun mutagenesis epitope mapping of anti-siglec-7 antibodies was performed using an alanine-scanning library for the siglec-7 protein. […] Each of residues 19 to 353 was mutated, representing the siglec-7 extracellular domain, most to alanine, while alanine codons were mutated to serine. In total, 335 siglec-7 mutant expression constructs were generated, sequences confirmed, and arrayed into a 384-well plate, one mutant per well.
(§2) Cells were then incubated with MAbs diluted in 10% o normal goat serum (NGS) (Sigma-Aldrich, St. Louis, Mo.). Prior to library screening, primary MAb concentrations were determined using an independent immunofluorescence titration curve against cells expressing wild-type siglec-7 to ensure that signals were within the linear range of detection. MAbs were detected using 3.75 μg/ml AlexaFluor488-conjugated secondary antibody (Jackson immunoResearch Laboratories, Westgrove, Pa.) in 10% NGS. Cells were washed twice with PBS−/− and resuspended in Cellstripper (Cellgro, Manassas, Va.) with 0.1% BSA (Sigma-Aldrich, St. Louis, Mo.). Mean cellular fluorescence was detected using the Intellicyt high throughput flow cytometer (HTFC, Intellicyt, Albuquerque, N. Mex.). MAb reactivities against each mutant clone were calculated relative to wild-type siglec-7 protein reactivity by subtracting the signal from mock-transfected controls, and normalizing to the signal from wild-type siglec-7-transfected controls.

T103A = biological target: T2, T103A (human, UniProt Q9Y286); experiment: as above
T2 construct: clone of the siglec-7 mutation library; also called Siglec-7 T103A
T2 sequence (Q9Y286 19-467 T103A limits assumed): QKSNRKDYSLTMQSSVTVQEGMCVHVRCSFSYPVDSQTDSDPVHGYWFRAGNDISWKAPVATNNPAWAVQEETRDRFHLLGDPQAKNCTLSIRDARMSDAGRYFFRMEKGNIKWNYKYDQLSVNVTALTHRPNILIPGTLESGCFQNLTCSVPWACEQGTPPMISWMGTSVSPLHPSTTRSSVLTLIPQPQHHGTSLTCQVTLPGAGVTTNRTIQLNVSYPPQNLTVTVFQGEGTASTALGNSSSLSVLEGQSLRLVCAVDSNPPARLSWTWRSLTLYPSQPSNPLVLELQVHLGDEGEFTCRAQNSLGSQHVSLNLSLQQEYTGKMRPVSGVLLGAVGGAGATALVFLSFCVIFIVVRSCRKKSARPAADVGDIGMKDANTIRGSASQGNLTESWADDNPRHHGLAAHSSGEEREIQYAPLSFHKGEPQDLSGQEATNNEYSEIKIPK
Protocol: as §1, §2

W74A = biological target: T3, W74A (human, UniProt Q9Y286); experiment: as above
T3 construct: clone of the siglec-7 mutation library; also called Siglec-7 W74A
T3 sequence (Q9Y286 19-467 W74A limits assumed): as the sequence (Q9Y286 19-467 T103A limits assumed) above, with W56A, A85T counted along it
Protocol: as §1, §2

N81A = biological target: T4, N81A (human, UniProt Q9Y286); experiment: as above
T4 construct: clone of the siglec-7 mutation library; also called Siglec-7 N81A
T4 sequence (Q9Y286 19-467 N81A limits assumed): as the sequence (Q9Y286 19-467 T103A limits assumed) above, with N63A, A85T counted along it
Protocol: as §1, §2

M185A = biological target: T5, M185A (human, UniProt Q9Y286); experiment: as above
T5 construct: clone of the siglec-7 mutation library; also called Siglec-7 M185A
T5 sequence (Q9Y286 19-467 M185A limits assumed): as the sequence (Q9Y286 19-467 T103A limits assumed) above, with A85T, M167A counted along it
Protocol: as §1, §2

R124A = biological target: T6, R124A (human, UniProt Q9Y286); experiment: as above
T6 construct: clone of the siglec-7 mutation library; also called Siglec-7 R124A
T6 sequence (Q9Y286 19-467 R124A limits assumed): as the sequence (Q9Y286 19-467 T103A limits assumed) above, with A85T, R106A counted along it
Protocol: as §1, §2

V44A = biological target: T7, V44A (human, UniProt Q9Y286); experiment: as above
T7 construct: clone of the siglec-7 mutation library; also called Siglec-7 V44A
T7 sequence (Q9Y286 19-467 V44A limits assumed): as the sequence (Q9Y286 19-467 T103A limits assumed) above, with V26A, A85T counted along it
Protocol: as §1, §2

F48A = biological target: T8, F48A (human, UniProt Q9Y286); experiment: as above
T8 construct: clone of the siglec-7 mutation library; also called Siglec-7 F48A
T8 sequence (Q9Y286 19-467 F48A limits assumed): as the sequence (Q9Y286 19-467 T103A limits assumed) above, with F30A, A85T counted along it
Protocol: as §1, §2

K104A = biological target: T9, K104A (human, UniProt Q9Y286); experiment: as above
T9 construct: clone of the siglec-7 mutation library; also called Siglec-7 K104A
T9 sequence (Q9Y286 19-467 K104A limits assumed): as the sequence (Q9Y286 19-467 T103A limits assumed) above, with A85T, K86A counted along it
Protocol: as §1, §2

Y50A = biological target: T10, Y50A (human, UniProt Q9Y286); experiment: as above
T10 construct: clone of the siglec-7 mutation library; also called Siglec-7 Y50A
T10 sequence (Q9Y286 19-467 Y50A limits assumed): as the sequence (Q9Y286 19-467 T103A limits assumed) above, with Y32A, A85T counted along it
Protocol: as §1, §2

I72A = biological target: T11, I72A (human, UniProt Q9Y286); experiment: as above
T11 construct: clone of the siglec-7 mutation library; also called Siglec-7 I72A
T11 sequence (Q9Y286 19-467 I72A limits assumed): as the sequence (Q9Y286 19-467 T103A limits assumed) above, with I54A, A85T counted along it
Protocol: as §1, §2

S47A = biological target: T12, S47A (human, UniProt Q9Y286); experiment: as above
T12 construct: clone of the siglec-7 mutation library; also called Siglec-7 S47A
T12 sequence (Q9Y286 19-467 S47A limits assumed): as the sequence (Q9Y286 19-467 T103A limits assumed) above, with S29A, A85T counted along it
Protocol: as §1, §2

T107A = biological target: T13, T107A (human, UniProt Q9Y286); experiment: as above
T13 construct: clone of the siglec-7 mutation library; also called Siglec-7 T107A
T13 sequence (Q9Y286 19-467 T107A limits assumed): as the sequence (Q9Y286 19-467 T103A limits assumed) above, with A85T, T89A counted along it
Protocol: as §1, §2

R45A = biological target: T14, R45A (human, UniProt Q9Y286); experiment: as above
T14 construct: clone of the siglec-7 mutation library; also called Siglec-7 R45A
T14 sequence (Q9Y286 19-467 R45A limits assumed): as the sequence (Q9Y286 19-467 T103A limits assumed) above, with R27A, A85T counted along it
Protocol: as §1, §2

[1] = biological target: T15, Siglec-7-Fc (plate immobilized) (human, UniProt Q9Y286 19-357, limits assumed); experiment: RBC solid adhesion assay, plate-coated Siglec-7-Fc, antibody 0.5 or 1.0 ug/ml; % of RBC binding without antibody
T15 construct: also called Siglec-7-Fc protein; immobilized Siglec-7; not shown: Fc part
T15 sequence (Q9Y286 19-357 limits assumed): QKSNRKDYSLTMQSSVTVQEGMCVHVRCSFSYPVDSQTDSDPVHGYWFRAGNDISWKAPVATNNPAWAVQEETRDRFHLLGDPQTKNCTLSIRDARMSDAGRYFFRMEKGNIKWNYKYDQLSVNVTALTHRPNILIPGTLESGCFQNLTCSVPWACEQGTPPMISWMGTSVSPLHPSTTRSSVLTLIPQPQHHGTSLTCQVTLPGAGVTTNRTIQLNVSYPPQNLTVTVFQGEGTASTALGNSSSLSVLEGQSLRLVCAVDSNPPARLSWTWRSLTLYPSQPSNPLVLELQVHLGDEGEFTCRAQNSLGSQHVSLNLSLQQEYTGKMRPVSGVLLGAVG
Protocol: To determine which antibodies compete with ligand binding to Siglec-7, a red blood cell (RBC) solid adhesion assay was carried out in accordance with standard protocols (Kelm et al., Current Biology, 1994). Red blood cells are highly decorated with glycoproteins containing sialic acids: therefore, the ability of an antibody to block RBC binding to immobilized Siglec-7 can be used to determine ligand interference. Briefly, 5 μg/ml Siglec-7-Fc was coated overnight at RT in 96 well Immunolon plates, then washed with PBS, blocked for one hour with binding buffer (PBS containing %0.25 BSA 1 mM CaCl₂), Siglec-7 antibodies (0.5 μg/ml or 1.0 μg/ml) were bound for one hour at RT with gentle rocking. After removal of unbound antibody, red blood cells were added to each well at a concentration of 3.0×10⁶ cells per ml and incubated at RT for one hour. Unbound RBCs were then carefully washed off 3× with PBS, and water was added to each well for hypotonic lysis of bound RBCs. The plate was transferred to −80° C. for 10 minutes, followed by 37° C. for 15 minutes. Bound RBCs were detected by peroxidase activity, followed by 2N sulfuric acid to stop the reaction. Signal was detected at […]. Data was calculated as a percent of RBC binding to plate bound Siglec-7-Fc in the absence of antibody.

[2] = biological target: human Siglec-7 expressed on human cells (primary monocytes, dendritic cells, macrophages, NK cells, microglia, U937 cells, human cells of humanized mice) (human) (UniProt Q9Y286); experiment: FACS, human primary macrophages, 10 ug/ml mAb
Chain of human Siglec-7 expressed on human cells (primary monocytes, dendritic cells, macrophages, NK cells, microglia, U937 cells, human cells of humanized mice) (human) (Q9Y286 19-467): as the sequence (Q9Y286 19-467 T103A limits assumed) above, with A85T counted along it

[3] = biological target: human Siglec-7 expressed on human cells (primary monocytes, dendritic cells, macrophages, NK cells, microglia, U937 cells, human cells of humanized mice) (human) (UniProt Q9Y286); experiment: FACS, human primary dendritic cells, 10 ug/ml mAb
[4] = biological target: human Siglec-7 expressed on human cells (primary monocytes, dendritic cells, macrophages, NK cells, microglia, U937 cells, human cells of humanized mice) (human) (UniProt Q9Y286); experiment: FACS, human primary monocytes, 10 ug/ml mAb
[5] = biological target: human Siglec-7 expressed on human cells (primary monocytes, dendritic cells, macrophages, NK cells, microglia, U937 cells, human cells of humanized mice) (human) (UniProt Q9Y286); experiment: cell-based or functional assay
[6] = biological target: T15, Siglec-7-Fc (plate immobilized); experiment: RBC solid adhesion assay, plate-coated Siglec-7-Fc; isotype control
[7] = biological target: human Siglec-7 expressed on human cells (primary monocytes, dendritic cells, macrophages, NK cells, microglia, U937 cells, human cells of humanized mice) (human) (UniProt Q9Y286); experiment: FACS, human primary dendritic cells; isotype control (background)
[8] = biological target: human Siglec-7 expressed on human cells (primary monocytes, dendritic cells, macrophages, NK cells, microglia, U937 cells, human cells of humanized mice) (human) (UniProt Q9Y286); experiment: FACS, human primary macrophages; isotype control (background)
[9] = biological target: human Siglec-7 expressed on human cells (primary monocytes, dendritic cells, macrophages, NK cells, microglia, U937 cells, human cells of humanized mice) (human) (UniProt Q9Y286); experiment: FACS, human primary monocytes; isotype control (background)

T1 sequence (Q9Y286 19-467 M30A limits assumed): as the sequence (Q9Y286 19-467 T103A limits assumed) above, with M12A, A85T counted along it

| Substance | Binding Reactivity (% WT) (M30A) | Binding Reactivity (% WT) (T103A) | Binding Reactivity (% WT) (W74A) | Binding Reactivity (% WT) (N81A) | Binding Reactivity (% WT) (M185A) | Binding Reactivity (% WT) (R124A) | Binding Reactivity (% WT) (V44A) | Binding Reactivity (% WT) (F48A) | Binding Reactivity (% WT) (K104A) | Binding Reactivity (% WT) (Y50A) | Binding Reactivity (% WT) (I72A) | Binding Reactivity (% WT) (S47A) | Binding Reactivity (% WT) (T107A) | Binding Reactivity (% WT) (R45A) | Percent Siglec-7 Surface Expression, DCs [5] | Percent Siglec-7 Surface Expression, Macrophages [5] | Percent Siglec-7 Surface Expression, Microglia [5] | Percent Siglec-7 Surface Expression, Monocytes [5] | Percent Siglec-7 Surface Expression, NK cells [5] | Percent Siglec-7 Surface Expression, U937 cells [5] | other results |
| --- | --- | --- | --- | --- | --- | --- | --- | --- | --- | --- | --- | --- | --- | --- | --- | --- | --- | --- | --- | --- | --- |
| 6-434 MAb (antibody) | 84.8 % WT | 77.5 % WT | 74.9 % WT | 112 % WT | 69.3 % WT | 126 % WT | 68 % WT | 113 % WT | 83.8 % WT | 97.9 % WT | 64.2 % WT | 101 % WT | 66.8 % WT | 112 % WT | – | – | – | – | – | – | – |
| S7.7 MAb (antibody) | 100 % WT | 106 % WT | 83.7 % WT | 5.6 % WT | 74.3 % WT | 115 % WT | 89.3 % WT | 158 % WT | 115 % WT | 142 % WT | 101 % WT | 118 % WT | 129 % WT | 126 % WT | – | – | – | – | – | – | – |
| commercially available anti-Siglec-7 antibody Mab1138 (R&D Systems; Cat. No. MAB 1138) | – | – | – | – | – | – | – | – | – | – | – | – | – | – | 96.7% | 98.7% | 80.2% | 99.6% | 103% | 98.2% | Percent RBC Binding to Siglec-7 [1]: 97.1%; % Positive [2]: 98.6%; MFI [2]: 4220; % Positive [3]: 73.9%; MFI [3]: 1450; % Positive [4]: 19.9%; MFI [4]: 175 |
| mIgG1 isotype control antibody | – | – | – | – | – | – | – | – | – | – | – | – | – | – | 101% | 100% | 88.7% | 96.2% | 99.6% | 102% | Percent RBC Binding to Siglec-7 [6]: 107%; % Positive [7]: 2.8%; MFI [7]: 83; % Positive [8]: 21.7%; MFI [8]: 368; % Positive [9]: 10.6%; MFI [9]: 115 |
| mIgG2b isotype control antibody | – | – | – | – | – | – | – | – | – | – | – | – | – | – | 100% | 100% | 88.8% | 96.2% | 101% | 99.3% | Percent RBC Binding to Siglec-7 [6]: 102%; % Positive [7]: 5%; MFI [7]: 130; % Positive [8]: 79.5%; MFI [8]: 2060; % Positive [9]: 13.9%; MFI [9]: 128 |
